Data published in patent US6835378B2, “Method and compositions for inhibiting thrombin-induced coagulation” (The Texas A&M University System University, priority 2001, dated 2004).
Entries after “also recorded” stand apart in the source; their conditions may differ.

Experiments:
[1] = molecular target: Fg Bβ chain peptide β1-25 (Homo sapiens, UniProt P02675); conditions: read-out: KD for interaction with peptide β1-25; 10 nM fluorescein-labeled β1-25, 3 h, room temperature
Experimental: Fluorescence Polarization—Fluorescence polarization was used to determine the equilibrium dissociation constant (KD) for the interaction of rSdrG(50-597) with peptide β1-25. The peptide was labeled with fluorescein as previously described (18). Increasing concentrations of rSdrG(50-597) in PBS, pH 7.5, were incubated with 10 nM labeled peptide for 3 h in the dark at room temperature. Reactions were allowed to reach equilibrium. Polarization measurements were taken with a Luminescence Spectrometer LS50B (Perkin Elmer) using FL WinLab software (Perkin Elmer). Binding data was analyzed by nonlinear regression used to fit a binding function as defined by the following equation: [formula]

thrombin digested Fg = molecular target: T1, thrombin digested Fg (Homo sapiens, UniProt P02675); experiment: ELISA with thrombin-digested Fg; format: binding; conditions: Fg wells pretreated with thrombin 30 min 37° C.
T1 construct: purchased Enzyme Research Labs
T1 sequence (P02675 45-491 limits assumed): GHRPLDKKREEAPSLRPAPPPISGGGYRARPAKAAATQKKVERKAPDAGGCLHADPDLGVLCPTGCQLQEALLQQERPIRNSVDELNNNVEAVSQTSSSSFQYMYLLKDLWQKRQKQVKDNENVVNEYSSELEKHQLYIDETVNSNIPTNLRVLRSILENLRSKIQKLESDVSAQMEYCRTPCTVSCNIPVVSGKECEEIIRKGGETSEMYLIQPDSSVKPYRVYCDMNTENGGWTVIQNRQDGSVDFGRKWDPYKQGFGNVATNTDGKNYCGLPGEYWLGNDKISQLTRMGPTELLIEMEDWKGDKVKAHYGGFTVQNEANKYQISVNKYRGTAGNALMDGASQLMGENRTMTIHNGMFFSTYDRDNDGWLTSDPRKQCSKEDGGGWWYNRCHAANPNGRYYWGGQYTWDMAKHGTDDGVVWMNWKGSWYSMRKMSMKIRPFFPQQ
T1 sequence (P02671 36-629 partner limits assumed): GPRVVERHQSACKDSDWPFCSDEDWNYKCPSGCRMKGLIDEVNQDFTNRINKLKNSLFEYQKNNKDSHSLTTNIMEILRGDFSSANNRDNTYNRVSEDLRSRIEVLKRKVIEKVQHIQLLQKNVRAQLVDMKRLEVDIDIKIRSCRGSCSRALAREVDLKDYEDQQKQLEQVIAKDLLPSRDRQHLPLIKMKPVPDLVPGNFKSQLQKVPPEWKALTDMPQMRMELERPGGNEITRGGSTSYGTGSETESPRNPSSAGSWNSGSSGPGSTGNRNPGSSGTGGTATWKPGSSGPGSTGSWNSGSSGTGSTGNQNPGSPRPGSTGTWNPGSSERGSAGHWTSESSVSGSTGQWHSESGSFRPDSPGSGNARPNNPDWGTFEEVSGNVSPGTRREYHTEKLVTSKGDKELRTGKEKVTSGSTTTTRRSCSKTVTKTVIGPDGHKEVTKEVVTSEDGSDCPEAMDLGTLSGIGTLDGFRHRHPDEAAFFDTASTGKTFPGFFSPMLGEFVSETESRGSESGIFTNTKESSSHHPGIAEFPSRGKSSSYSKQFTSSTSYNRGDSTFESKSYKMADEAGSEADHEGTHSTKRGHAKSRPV
T1 sequence (P02679 27-437 isoform P02679-2 partner limits assumed): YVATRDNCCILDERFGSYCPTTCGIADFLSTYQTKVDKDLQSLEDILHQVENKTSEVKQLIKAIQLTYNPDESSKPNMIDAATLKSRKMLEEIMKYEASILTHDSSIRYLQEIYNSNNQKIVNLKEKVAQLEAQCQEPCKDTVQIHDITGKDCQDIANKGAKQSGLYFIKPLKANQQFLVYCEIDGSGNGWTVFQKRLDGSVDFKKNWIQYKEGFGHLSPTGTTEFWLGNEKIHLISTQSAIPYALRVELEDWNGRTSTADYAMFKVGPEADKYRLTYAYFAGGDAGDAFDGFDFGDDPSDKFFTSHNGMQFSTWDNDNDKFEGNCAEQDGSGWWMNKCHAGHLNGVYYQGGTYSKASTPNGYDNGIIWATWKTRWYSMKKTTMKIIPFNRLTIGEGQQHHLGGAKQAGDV
Experimental: For the ELISA with thrombin-digested Fg, the plate was coated with Fg and blocked as described above. The plate was washed three times with PBST and 50 μl of 1.0 NIH unit/ml of thrombin was added to the Fg coated wells. The plate was incubated at 37° C. for 30 min. The plate was washed three times with PBST and 50 μl of 1.0 NIH unit/ml of hirudin (Sigma) was added to the wells and incubated at 37° C. for 30 min. The plate was washed three times with PBST and blocked with 1% BSA for 1 h at room temperature. After washing three times with PBST, 100 μl of biotin labeled rSdrG(50-597) (25-1000 nM) or a rSdrG(50-597)/hirudin (1.0 NIH unit/ml) mixture was added to the wells and incubated for 1 h at room temperature. The plate was washed three times with PBST and a 1:5000 dilution of streptavidin-AP conjugated (Boehringer Mannheim) in PBST/0.1% BSA was added to the wells for 1 h at room temperature. The plate was washed three times with PBST and developed as described above.

[2] = test system: Serine protease-digested Fg; experiment: ELISA with serine protease-treated immobilized Fg; format: binding, human; conditions: 30 min at room temperature
Experimental: Fg coated microtiter wells were pretreated for 30 min at room temperature with ancrod (•), PBS (untreated) (▾), thrombin (♦) or contortrixobin (▪). Plates were blocked, washed and incubated with a serine protease inhibitor (1 NIH unit/ml hirudin for thrombin and 100 μg/ml PMSF for ancrod and contortrixobin). Biotin labeled rSdrG(50-597) (25-1000 nM) was incubated in the wells for 1 h at room temperature. Values represent the mean±standard deviation of triplicate wells.
The A[…] chain may interfere with rSdrG(50-597) binding to the Bβ chain and this observation may be due to the absence of FpA, thus making the N-terminus of the Bβ chain more easily accessible.

Sequence of Fg Bβ chain peptide β1-25 (P02675 31-55 limits assumed): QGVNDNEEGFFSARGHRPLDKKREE

B1: rSdrG(50-597): recombinant His-tagged A region (residues 50-597) of SdrG, a fibrinogen-binding MSCRAMM from S. epidermidis (protein)
chain: HHHHHHAEENTVQDVKDSNMDDELSDSNDQSSNEEKNDVINNSQSINTDDDNQIKKEETNSNDAIENRSKDITQSTTNVDENEATFLQKTPQDNTQLKEEVVKEPSSVESSNSSMDTAQQPSHTTINSEASIQTSDNEENSRVSDFANSKIIESNTESNKEENTIEQPNKVREDSITSQPSSYKNIDEKISNQDELLNLPINEYENKVRPLSTTSAQPSSKRVTVNQLAAEQGSNVNHLIKVTDQSITEGYDDSDGIIKAHDAENLIYDVTFEVDDKVKSGDTMTVNIDKNTVPSDLTDSFAIPKIKDNSGEIIATGTYDNTNKQITYTFTDYVDKYENIKAHLKLTSYIDKSKVPNNNTKLDVEYKTALSSVNKTITVEYQKPNENRTANLQSMFTNIDTKNHTVEQTIYINPLRYSAKETNVNISGNGDEGSTIIDDSTIIKVYKVGDNQNLPDSNRIYDYSEYEDVTNDDYAQLGNNNDVNINFGNIDSPYIIKVISKYDPNKDDYTTIQQTVTMQTTINEYTGEFRTASYDNTIAFSTSSGQGQGDLPPE
- Kd [1]: 140 nM
- binding to thrombin digested Fg (thrombin digested Fg): significantly impaired; also recorded: unable to bind
- binding to thrombin digested Fg (thrombin digested Fg; listed as SdrG): could not bind; also recorded: does not bind
- binding to Fg treated with contortrixobin [2]: could not bind; also recorded: not able to bind
- binding to Fg treated with thrombin [2]: could not bind
- binding to Fg treated with ancrod ([2]; versus untreated Fg): bind better; also recorded: still able to bind
